Measured values reported in CN116143909A.

Tests used:
[1] = biological target: HIV-1 P24抗原(购自菲鹏) (HIV-1) (UniProt P04591); assay: indirect ELISA, P24 coated at 1 ug/ml, antibody at 62.5 ng/ml, goat anti-human IgG-HRP
[2] = biological target: HIV-1 P24抗原(购自菲鹏) (HIV-1) (UniProt P04591); assay: indirect ELISA, P24 coated at 1 ug/ml, antibody at 250 ng/ml, goat anti-human IgG-HRP
[3] = biological target: HIV-1 P24抗原(购自菲鹏) (HIV-1) (UniProt P04591); assay: indirect ELISA, P24 coated at 1 ug/ml, antibody at 15.625 ng/ml, goat anti-human IgG-HRP
[4] = biological target: HIV-1 P24抗原(购自菲鹏) (HIV-1) (UniProt P04591); assay: indirect ELISA, P24 coated at 1 ug/ml, antibody at 125 ng/ml, goat anti-human IgG-HRP
[5] = biological target: HIV-1 P24抗原(购自菲鹏) (HIV-1) (UniProt P04591); assay: indirect ELISA, P24 coated at 1 ug/ml, antibody at 31.25 ng/ml, goat anti-human IgG-HRP
[6] = biological target: HIV-1 P24抗原(购自菲鹏) (HIV-1) (UniProt P04591); assay: indirect ELISA, P24 coated at 3 ug/ml, supernatant of transiently transfected CHO cells diluted 1000-fold, goat anti-human IgG-HRP

Molecule	OD450 (ref 630 nm) [1] [OD]	OD450 (ref 630 nm) [2] [OD]	OD450 (ref 630 nm) [3] [OD]	OD450 (ref 630 nm) [4] [OD]	OD450 (ref 630 nm) [5] [OD]	OD450 (ref 630 nm) [6] [OD]
对照抗体 (antibody)	0.756	1.57	0.337	1.28	0.537	
6F13RMb1 (antibody, human IgG1, kappa, V domains shown) VH: QVQLVQSGAEVKKPGSSVKVSCKASGGTFSSYAISWVRQAPGQGLEWMGGSIPIFGTTHYAQKFQGRVAIIVDESTSTSYMELSSLRSDDTAAYYCARAATAIFGVPRNNFYAMEVWGQGTTVTVSS VL: DIVMTQSPLSLSVTPGEPASISCRSSQSILHSNGYNYLDWYLQRPGQSPKLLIYIGSTRASGVPDRFSGSGSGTDFTLKISRVEAEDVGVYYCMQAVQTFFGPGTKVDLKR	1.03	1.52	0.455	1.42	0.673	> 1
